In US20250282890A1 one finds Kd and EC50 (read off the curve) data, which are given here for two substances.

The target of experiment [1] is human PSMA displayed on the surface of LNCaP cells (human) (UniProt Q04609). Description: flow cytometry on LNCaP cells, IgG1 titrated. (In flow cytometry, cells or beads pass a laser one at a time.)
Experiment [2] addresses recombinant human PSMA (prostate-specific membrane antigen), biotin-tagged (human) (UniProt Q04609). Briefly: native ELISA, streptavidin-captured biotin-tagged PSMA, IgG1 titrated. (In general: An ELISA detects its analyte on a solid surface through an enzyme-linked reagent.)
Experiment [3] shares this target. Briefly: ELISA on plates coated with recombinant PSMA, two-fold dilution series, goat anti-human-HRP and TMB.
Experiment [4] has as its target human PSMA displayed on the surface of LNCaP cells (human) (UniProt Q04609). Description: flow cytometry on LNCaP cells, Fab titrated.
Experiment [5] deals with recombinant human PSMA (prostate-specific membrane antigen), biotin-tagged (human) (UniProt Q04609). Description: native ELISA, streptavidin-captured biotin-tagged PSMA, Fab titrated.
recombinant human PSMA (prostate-specific membrane antigen), biotin-tagged (human), sequence (Q04609 44-750 limits assumed): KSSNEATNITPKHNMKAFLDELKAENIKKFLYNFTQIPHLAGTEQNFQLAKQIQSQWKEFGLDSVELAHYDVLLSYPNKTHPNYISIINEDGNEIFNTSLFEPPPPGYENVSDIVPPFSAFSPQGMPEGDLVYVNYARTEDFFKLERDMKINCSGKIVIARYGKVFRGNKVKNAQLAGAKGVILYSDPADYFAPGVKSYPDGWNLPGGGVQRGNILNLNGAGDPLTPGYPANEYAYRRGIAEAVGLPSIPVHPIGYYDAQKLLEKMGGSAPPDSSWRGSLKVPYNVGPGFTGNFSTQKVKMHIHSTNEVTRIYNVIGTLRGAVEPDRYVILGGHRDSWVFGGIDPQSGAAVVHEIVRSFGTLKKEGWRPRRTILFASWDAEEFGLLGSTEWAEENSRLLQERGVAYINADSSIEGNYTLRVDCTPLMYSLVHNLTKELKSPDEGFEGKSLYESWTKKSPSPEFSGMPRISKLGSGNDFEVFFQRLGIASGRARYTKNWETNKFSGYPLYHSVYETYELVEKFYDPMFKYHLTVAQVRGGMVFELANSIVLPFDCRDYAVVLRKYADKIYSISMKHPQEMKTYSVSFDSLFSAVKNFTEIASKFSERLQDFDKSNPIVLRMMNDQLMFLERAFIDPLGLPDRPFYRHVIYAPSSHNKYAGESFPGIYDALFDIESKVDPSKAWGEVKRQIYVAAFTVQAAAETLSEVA
Experiment [6] has the same target. Briefly: ELISA on plates coated with recombinant PSMA (biotin-tagged, captured on streptavidin), two-fold dilution series, goat anti-human-HRP and TMB.
Experiment [7] deals with human PSMA displayed on the surface of LNCaP cells (human) (UniProt Q04609). Description: flow cytometry titration on cells (three-fold dilution series, anti-Strep antibody and goat anti-mouse Alexa Fluor 647); the sheet does not name the cell line, the text gives the curves as binding to cell-surface PSMA (LNCaP).

human PSMA displayed on the surface of LNCaP cells (human), sequence (Q04609 whole entry): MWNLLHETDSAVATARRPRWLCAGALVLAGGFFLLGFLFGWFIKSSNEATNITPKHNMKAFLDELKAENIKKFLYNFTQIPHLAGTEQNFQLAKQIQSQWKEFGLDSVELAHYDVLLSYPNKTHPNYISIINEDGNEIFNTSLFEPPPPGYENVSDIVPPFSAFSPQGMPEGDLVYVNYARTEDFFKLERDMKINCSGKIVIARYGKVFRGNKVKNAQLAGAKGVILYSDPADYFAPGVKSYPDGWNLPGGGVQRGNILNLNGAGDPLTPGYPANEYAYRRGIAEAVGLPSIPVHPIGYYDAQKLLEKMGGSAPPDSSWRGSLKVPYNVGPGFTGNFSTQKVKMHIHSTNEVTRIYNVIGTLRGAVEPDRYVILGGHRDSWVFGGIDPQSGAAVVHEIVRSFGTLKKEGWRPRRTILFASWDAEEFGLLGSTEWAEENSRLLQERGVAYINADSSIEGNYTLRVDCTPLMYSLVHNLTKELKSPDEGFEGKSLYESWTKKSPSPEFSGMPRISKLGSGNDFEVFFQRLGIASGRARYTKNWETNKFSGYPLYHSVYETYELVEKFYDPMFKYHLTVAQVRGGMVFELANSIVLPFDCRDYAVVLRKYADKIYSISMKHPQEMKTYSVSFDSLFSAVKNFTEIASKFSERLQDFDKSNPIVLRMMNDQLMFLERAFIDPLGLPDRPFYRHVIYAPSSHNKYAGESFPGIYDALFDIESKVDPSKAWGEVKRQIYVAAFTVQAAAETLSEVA

One may read the Kd as a measure of binding affinity in units of concentration. One may read the EC50 (read off the curve) as the midpoint of the concentration-response curve. Turning to Chimeric 5D3 IgG1 (antibody), the results for the Kd in experiment [1] and in experiment [2] were 0.35 nM and 0.28 nM, respectively. In addition, the concentration giving a half-maximal response (EC50 (read off the curve)) in experiment [3] came out at 0.3 nM.

For the substance Chimeric Fab, the equilibrium dissociation constant (Kd) in experiment [4] is 2.8 nM; in experiment [5] it was 1.8 nM. Besides, the figures for the concentration giving a half-maximal response (EC50 (read off the curve)) in experiment [6] and in experiment [7] were 1 nM and 3 nM, respectively.
